Reference: patent US20070105771A1 (Y S THERAPEUTICS, published 2007)

What was measured:
Assay in all cases: peptide microarray
[1] = target: T1, human CD26-derived 13 mer peptide 74 (human)
T1 peptide: IYNGITDWVYEEE
Description: (§1) The overnight incubation was followed by three washings with each of PBS buffer pH 7.5 and water. The microarrays were then scanned using ArrayWorx-Microarray Scanner.
(§2) The SPOT recognition software package ArrayPro was used for data analysis. The mean of signal intensities from 3 identical subarrays on each microarray image was used for data evaluation.

[2] = target: T2, human CD26-derived 13 mer peptide 78 (human)
T2 construct: also called VYEEEVFSAYSAL
T2 peptide: VYEEEVFSAYSAL
Description: as §1, §2

[3] = target: T3, human CD26-derived 13 mer peptide 86 (human)
T3 peptide: PNGTFLAYAQFND
Description: as §1, §2

[4] = target: T4, human CD26-derived 13 mer peptide 88 (human)
T4 peptide: FLAYAQFNDTEVP
Description: as §1, §2

[5] = target: T5, human CD26-derived 13 mer peptide 89 (human)
T5 peptide: AYAQFNDTEVPLI
Description: as §1, §2

[6] = target: T6, human CD26-derived 13 mer peptide 92 (human)
T6 peptide: DTEVPLIEYSFYS
Description: as §1, §2

[7] = target: T7, human CD26-derived 13 mer peptide 97 (human)
T7 peptide: FYSDESLQYPKTV
Description: as §1, §2

[8] = target: T8, human CD26-derived 13 mer peptide 101 (human)
T8 peptide: YPKTVRVPYPKAG
Description: as §1, §2

[9] = target: T9, human CD26-derived 13 mer peptide 102 (human)
T9 peptide: KTVRVPYPKAGAV
Description: as §1, §2

[10] = target: T10, human CD26-derived 13 mer peptide 103 (human)
T10 peptide: VRVPYPKAGAVNP
Description: as §1, §2

[11] = target: T11, human CD26-derived 13 mer peptide 104 (human)
T11 peptide: VPYPKAGAVNPTV
Description: as §1, §2

[12] = target: T12, human CD26-derived 13 mer peptide 110 (human)
T12 peptide: VKFFVVNTDSLSS
Description: as §1, §2

[13] = target: T13, human CD26-derived 13 mer peptide 111 (human)
T13 peptide: FFVVNTDSLSSVT
Description: as §1, §2

[14] = target: T14, human CD26-derived 13 mer peptide 113 (human)
T14 peptide: NTDSLSSVTNATS
Description: as §1, §2

[15] = target: T15, human CD26-derived 13 mer peptide 117 (human)
T15 peptide: TNATSIQITAPAS
Description: as §1, §2

[16] = target: T16, human CD26-derived 13 mer peptide 119 (human)
T16 peptide: SIQITAPASMLIG
Description: as §1, §2

[17] = target: T17, human CD26-derived 13 mer peptide 122 (human)
T17 peptide: PASMLIGDHYLCD
Description: as §1, §2

[18] = target: T18, human CD26-derived 13 mer peptide 127 (human)
T18 peptide: LCDVTWATQERIS
Description: as §1, §2

[19] = target: T19, human CD26-derived 13 mer peptide 129 (human)
T19 peptide: TWATQERISLQWL
Description: as §1, §2

[20] = target: T20, human CD26-derived 13 mer peptide 130 (human)
T20 peptide: ATQERISLQWLRR
Description: as §1, §2

[21] = target: T21, human CD26-derived 13 mer peptide 133 (human)
T21 peptide: SLQWLRRIQNYSV
Description: as §1, §2

[22] = target: T22, human CD26-derived 13 mer peptide 1 (human)
T22 peptide: YLKNTYRLKLYSL
Description: as §1, §2

[23] = target: T23, human CD26-derived 13 mer peptide 5 (human)
T23 peptide: KLYSLRWISDHEY
Description: as §1, §2

[24] = target: T24, human CD26-derived 13 mer peptide 8 (human)
T24 peptide: WISDHEYLYKQEN
Description: as §1, §2

[25] = target: T25, human CD26-derived 13 mer peptide 11 (human)
T25 peptide: YLYKQENNILVFN
Description: as §1, §2

[26] = target: T26, human CD26-derived 13 mer peptide 12 (human)
T26 peptide: YKQENNILVFNAE
Description: as §1, §2

[27] = target: T27, human CD26-derived 13 mer peptide 18 (human)
T27 peptide: EYGNSSVFLENST
Description: as §1, §2

[28] = target: T28, human CD26-derived 13 mer peptide 22 (human)
T28 peptide: LENSTFDEFGHSI
Description: as §1, §2

[29] = target: T29, human CD26-derived 13 mer peptide 24 (human)
T29 peptide: TFDEFGHSINDYS
Description: as §1, §2

[30] = target: T30, human CD26-derived 13 mer peptide 28 (human)
T30 peptide: INDYSISPDGQFI
Description: as §1, §2

[31] = target: T31, human CD26-derived 13 mer peptide 30 (human)
T31 peptide: SISPDGQFILLEY
Description: as §1, §2

[32] = target: T32, human CD26-derived 13 mer peptide 32 (human)
T32 peptide: DGQFILLEYNYVK
Description: as §1, §2

[33] = target: T33, human CD26-derived 13 mer peptide 34 (human)
T33 peptide: ILLEYNYVKQWRH
Description: as §1, §2

[34] = target: T34, human CD26-derived 13 mer peptide 40 (human)
T34 peptide: HSYTASYDIYDLN
Description: as §1, §2

[35] = target: T35, human CD26-derived 13 mer peptide 43 (human)
T35 peptide: YDIYDLNKRQLIT
Description: as §1, §2

[36] = target: T36, human CD26-derived 13 mer peptide 44 (human)
T36 peptide: IYDLNKRQLITEE
Description: as §1, §2

[37] = target: T37, human CD26-derived 13 mer peptide 50 (human)
T37 peptide: ERIPNNTQWVTWS
Description: as §1, §2

[38] = target: T38, human CD26-derived 13 mer peptide 55 (human)
T38 peptide: TWSPVGHKLAYVW
Description: as §1, §2

[39] = target: T39, human CD26-derived 13 mer peptide 57 (human)
T39 peptide: VGHKLAYVWNNDI
Description: as §1, §2

[40] = target: T40, human CD26-derived 13 mer peptide 58 (human)
T40 peptide: HKLAYVWNNDIYV
Description: as §1, §2

[41] = target: T41, human CD26-derived 13 mer peptide 62 (human)
T41 peptide: NDIYVKIEPNLPS
Description: as §1, §2

[42] = target: T42, human CD26-derived 13 mer peptide 63 (human)
T42 peptide: IYVKIEPNLPSYR
Description: as §1, §2

B1: rhuMAb 411 (antibody, human IgG1, kappa, V domains shown)
VH: EVQLVESGAGVKQPGGTLRLTCTASGFSLTTYGVHWVRQAPGKGLEWVGVIWGDGRTDYDAAFMSRVTISKDTSKSTVYLQMNSLRAEDTAVYYCMRNRHDWFDYWGQGTTVTVSS
VL: DILLTQSPSSLSATPGERATITCRASQGIRNNLNWYQQKPGQAPRLLIYYSSNLQSGVPSRFSGSGSGTDFTLTISRLQPEDVAAYYCQQSIKLPFTFGSGTKVEIKR
notes: also called X411
Mean Signal Value [1]: 0
Mean Signal Value [2]: 7.86
Mean Signal Value [3]: 0.524
Mean Signal Value [4]: 0
Mean Signal Value [5]: 0
Mean Signal Value [6]: 11.9
Mean Signal Value [7]: 0.0144
Mean Signal Value [8]: 0.00481
Mean Signal Value [9]: 0.0192
Mean Signal Value [10]: 0
Mean Signal Value [11]: 0.00481
Mean Signal Value [12]: 0.024
Mean Signal Value [13]: 0
Mean Signal Value [14]: 0.0288
Mean Signal Value [15]: 0.00962
Mean Signal Value [16]: 0.024
Mean Signal Value [17]: 0.308
Mean Signal Value [18]: 0.00962
Mean Signal Value [19]: 23.3
Mean Signal Value [20]: 4.3
Mean Signal Value [21]: 6.51
Mean Signal Value [22]: 3.5
Mean Signal Value [23]: 43.1
Mean Signal Value [24]: 0.736
Mean Signal Value [25]: 5.78
Mean Signal Value [26]: 0
Mean Signal Value [27]: 0
Mean Signal Value [28]: 0.0192
Mean Signal Value [29]: 0.00962
Mean Signal Value [30]: 0.221
Mean Signal Value [31]: 6.26
Mean Signal Value [32]: 0.0192
Mean Signal Value [33]: 15.7
Mean Signal Value [34]: 32.2
Mean Signal Value [35]: 0
Mean Signal Value [36]: 0
Mean Signal Value [37]: 34.6
Mean Signal Value [38]: 124
Mean Signal Value [39]: 9.67
Mean Signal Value [40]: 33.8
Mean Signal Value [41]: 0.00481
Mean Signal Value [42]: 8.12
